# Reference: the nanobody polyreactivity screen of Harvey et al. (2022)
# Experiment: yeast display, Sf9 membrane polyspecificity reagent, FACS + sequencing; frameworks hold sequencing errors
# Summary of the method: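 After 36–48 hours of galactose induction, yeast (Saccharomyces cerevisiae BJ5465) displaying a synthetic nanobody library were stained at 4 °C for 1 hour with 10% biotinylated, detergent-solubilized Sf9 membrane reagent. Streptavidin microbeads enriched the stained cells before FACS sorting into low and high (top ~1%) gates on anti-HA and streptavidin fluorescence. Each clone's polyreactivity label reflects its gate of origin.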
row,Sequence,polyreactivity (PSR sort gate)
1,QVQLVESGGGLVQAGGCLRLSCAPSGFIFGGYAMGWDRPAPGKEREVVAAISSSGGSTYYADSVKGRFTISRDNAKNTVYLQMNSLKPEDTAVYYCAARIQSVSSGRWFDYWGQGTQVTVSS,high polyreactivity
2,QVQLVESGGGLVQAGGSLRFSCAASGSTFQYYAMGWYRQAPGKEREFVAAIRSSGGTTYYADSVKGRFTLSRDNAKNTVYLQMNSLKPEDTAVYYCAATTKYNGRRSYFKFDYWGQGTQVTVSS,high polyreactivity
3,QVQLVESGGGLVQAGGSLRLSCAASGSTFGYYAMGWYRQAPGKERELVAGISSGGTTKYADSVKGRFTISRDNAKNTVYLQMNSLTPVDTAVYYCAARFRRTRVTYYYWGQGTQVTVSS,high polyreactivity
4,QVQLVVSGGGLVQAGGSLRLSCAASGRIFVINAMGWYRQAPGNERELVAAITWIGGTTYYADSVKGRFTISRDNAKNTVYLQLNSLKREDTAVYYCARQRSYGRSSYSYGYDYWGQGTQVTVSS,high polyreactivity
5,QVQLVESGGGLVQAGGSLRLSCAASGSIFESYAMGWYRQAPGKERELVAAITSSGDSTYYADSVKGRFTISRDNAKNTVYLQMNSLKPEDTAVDYCAKRVPTYISTADWGSRYDYWGQGTQVTVSS,low polyreactivity
6,QVQLVESGGGLVQAGGSLRLSCAATGSTFDPNVMGWYRQAPGKEREFVAAISSRSGSTSYADSVKGRFTISRDNAKNTVYLQMNCLKPEVTAVYYCAARVYGLPLRMYSWGQGTQVTLSS,high polyreactivity
7,QVHLVESGGGLVQAGGSLRLSCAASGFTFGVYAMGWYRQAPGKERELVAAISRRGTSTYYADSVKGRFTISRDTAKYTVYLQMNSLKPEDTAVYYCNARRYQVTVDHWGQGTQVTVSS,high polyreactivity
8,QVQLVESGRGLVQAGGSLRLSCAASGLNFYDNMGWYRQAPGKERDLVAAISSSGGSTSYADSVKGRFTISRDNAKNTVYLQMNSLNPEDTAVYYCAAEWYPYPWGYGYWGQGTQVTVSS,low polyreactivity
9,QVQLVESGGGLVQAGGSLRLSCAASGTFARYAMGWYRQAPGKERELVAAISRRGGSTYYADSVKGRFTISRDNAKNTVYLQMNSLKPEDTAVYYCAADNTQVRPKYDYWGQGTQVTVSS,high polyreactivity
10,QVQLVESGGGLVQAGGSLRLSCAASGSTFDKYAMGWYRQAPGKDRELVAAITWGGGSTYYADSVKGRFTISRDNAKNTVYLQMNSLKPEDTAVYYCAAEQGSSVLYDSWGQGTQVTVSS,low polyreactivity
11,QVQLVESGGGLVHAGGRLRLSCAASGRTFGFYTMGWYRQPPGKERELVAGISRGGSTTYADSVKGRFTISRDNAKNTVYLQMNSLKPEDTAVYYCNADRSHYWLPYGVRFDYWGQGSQVTVSS,low polyreactivity
12,QVQLVESGGGLVQAGGSLRLSCAASGSTLAGYAMGWYRQAPGKERELVATISWSDGSTSYADSVKGRFTFSRDNAKNTVYLQLNSLKPEDTAVSYCAADAITNYDGRKSRRSYSAYDYWGQGTQVTVSS,low polyreactivity
13,QVQLVESGGGLVQAGGSLRLSCAASGSIVPYNVMGWYRQAPGKERELVAAITRRGGSTYYADSVKGRFTISRDNAKNTVYLQMNSLKPEDSAVYYCAAVPYPRGKGYDYWGQGTQVTVSS,high polyreactivity
14,QVQQQESGGGRCSGRRTTPGLRGERHYFSLLHGLVSPGAGQEREFVAAIAVRSTYYADSAKGRFTINRDNAKYTVYLQMNSLKPEDTSVYSCAAYYSYYGGDYWGQGTQVTVSS,low polyreactivity
15,QVQLVESGGGLVQAGGSLRLSCAASGSIFGVNAMGWYRQAPGKERELVAAISSGGSTNYADSVKGRFTISRDNAKNTVYLQMNSLKPEDTAVYYCAADTKTRSNYDYWGQGTQVTVSS,low polyreactivity
16,QVQLVESGGGLVQAGGSLRLSCAASGRTFRYNAMGSYRQAPGKERELVAAISGRGSSTYYADSVKGRFTISRDNAKNTVYLQMNSLKPEDTAVYYCAALPASVRRPGWHDYWGQGTQVTVSS,high polyreactivity
17,QVQLEESGGGLVQAGGSLRLTCAASGRTIVYNAMGWYRQAPGKERELVAAIDGGTGSTYYADSVKGRFTISRDNAKNTVYLEMNCLKPEDTAVYYCAVETYGGGYPVTYDYWGQGTQVTVSS,low polyreactivity
18,HVQLVESGGGLVQAGGSLRLSCAASGIIFNLYAMGWYRQAPVKERELFAAISWSGGSTYYADSVKGRFTISRDNAKNTVYLKMNSLKPEDTAVYYCAAQRSVFKSFRTTYVRYDYWGQGTQVTVSS,high polyreactivity
19,QVQLVESGGGLVQAGGSLRLSCAASGRIFAGNAMGWYRQAPGKERELVAAISNGGSTYYADSVKGRFTISRDNAKNTVYLQMNSLKPEDTAVYYCNARTRLRKYQYYYWGQGTQVTVSS,high polyreactivity
20,QVQLVESGGGLVQAGGSLRLSCAASGRIFQGYAMGWYRQAPGKERELVARITSGSNTNYADSVKGRFTISRDNAKNTVYLQMNSLKPEDTAVYYCAKEPVGSVRYGRFQQDDYWGQGTQVTVSS,low polyreactivity
21,QVQLVESGGGLVQAGGSLRLSCAASGRTFRHNAMGWYRQAPGKERELVAAISSSGTNTHYADSVKGRFTISRDNAKNTVYLQMNSLKPEDTAVYYCATVVRSAAYAFDYWGQGTQVTVSS,high polyreactivity
22,QVQLVESGGGLVQAGGSLRLSCAASGRTFDGYAMGWYRQAPGKERELVAAISTSGVRTYYADSVKGRFTISRDNAKNTVYLQMNSLKPEDTAVYYCAADWTGGYEYWGQGTQVTVSS,high polyreactivity

row,Sequence,polyreactivity (PSR sort gate)
1,QVQLVESGGGLVQARGSLRLSSAASGIIFYEYAMGCYRQAPGKERELVAAISDTGGSTYYADSVKGRFTISRDNAKNTVYLQMNSLKPEDTAVYYCAAEYLAYYSGYDYWGQGTQVTVSS,high polyreactivity
2,QVQLVESGGGLVQAGGSLRLSCAASGRTFRYYAMGWYRQAPGKERELVAAIRTSGSTNYADSVKGRFTISRDNAKNTVYLQMNSLKPEDTAVYYCAAQPYWRYPYRAERDYWGQGTQVTVSS,high polyreactivity
3,QVKLEESGGGLVQAGGSLRLTCAASGSTFTYYAMGWYRQAPGKERELVAAITFRGDSTYYADSVKGRFTFSRDNAKNTVYLQMNSLKPEDTAVYYWGQGTQVTVSS,low polyreactivity
4,QVQLVESGGGLVQAGGSLRLICAASGRIFRPYAMGWYRQAPGKEREFVATIRFTTGRTYYADSVKGRFTISRDNAKNTVYLQMNSLKPEDTAVYYCAADFAFVNYAKISYTTHDYWGQGTQVTVSS,high polyreactivity
5,QVQLVESGGGLVQAGGSLRLSCAASGSTFLSYVMGWYRQAPGKERELVAAINRDGGRTYYADSVKGRFTISRDNAKNTVYLQMNSLKPEDTAVYYCATTSQATSGPRRKLYYYWGQGTQVTVSS,high polyreactivity
6,QVQLQESGGGLVQAGGSLRLSCAASGSIYDDTYMGWSRQAPGKERELVATIDSGSTTNYADSVKGRITISRDNAKNTVYLQMNSLKPEDTAVYYCAAADSHIDYFDYWGQGTQVTVSS,low polyreactivity
7,QVQLVESGGGLVQAGGSLRLSCAASGSTFTTNAMGWYRQAPGKEREFVAAITRSSGSTYYADSVKGRFTISRDNAKNTVYLQMNSLKPEDTAVYYCAAAYRQNPSQSKSRFGYWGQGTQVTVSS,high polyreactivity
8,QVQLVESGGGLVQAGGSLRLSCAASGRIFGRYAMGWYRQAPGKERELVAAISSRGSRTYYADSVKGRFTISRDNAKNTVYLQMNSLKPEDTAVYYCAATWLSNPSDYDYWGPGTQVTVSS,high polyreactivity
9,QVQLVESGGGLVQAGGSLRLSCAASGSTFFTYAMGWYRQAPGKERELVAAITRGGSSYYADSVKGRFTISRDNAKNTVYLLMNSLKPEDTAVYDCAARVSYRYGYWGQGTQVTVSS,high polyreactivity
10,QVQLVESGGGLVQAGGSLRLSCAASGSTFRANAMGWYRQAPGKERELVAAIRGTGSTYYADSVKGRFTISRDNAKNTVYLQMNSLKPEDTAVYYCAARPGYLYSKYNYWGQGTQVTVSS,high polyreactivity
11,QVQLVESGGGLVQAGGSLRLSCAASGLIFTNNAMGWYRQAPGKERELVAGINSGGRTNYADSVKGRFTISRDNAKNTVYLQKNSLKPEDTAVYYCAARWWVKSRPNRYNYWGQGTQVTVSS,high polyreactivity
12,QVQLVESGGGLVQAGGSLRLSCAPSGRTFDQYAMGWYRQAPGKERELVADITWSGGTTRYADSVKGRFTISRDHAKNTVYLQMNSLKPEDTAVYYCAVEVTWGYNYWGQVTQVTVSS,low polyreactivity
13,QVQLVESGGGLVQAGGSLRLSCAASGLTIFVNAMGWYRQAPGKERELVATISGGGSTYYADSVKGRFTISRDNAKNTVYLQMNSLKPEDTAVYYCNAADVGGPWWYPYTYNYWGQGTQVTVSS,low polyreactivity
14,QVQLVESGGGLVQAGGSLRLSCAASGRIFQSNAMGWYRQAPGKEREFVARISKRGGSTYYADSVKGRFTISRDNAKNTVYLQMNSLKPEDTAVYYCAVRRHDRGTMGYWGQGTQVTVSS,low polyreactivity
15,QVQLVESGGGLVQAGGSLRLSCAASGGIFKWYDMGWYRQAPGKEREFVAAITWSGGSTYYADSVKGRFTISRDNAKNTVYLQMNSLKPEVTAVYYCNVDWYPRGPHTVVFYDVSPFDYWGQGTQVTVSS,high polyreactivity
16,QVQLVESGGGLVQAGGSLRLSCAASGSIFLYYAMGWYRQAPGKERELVAAISGRAGSTYYADSVKGRFTISRDNAKNTVYLQMNSLKPEDTAVYYCAAGYWQGYPGFKYYWGQGTQVTVSS,low polyreactivity
17,QVQLVESGGGLVQAGGSLRLICAASGRTLGYNARGWYRQAPGKETELVAAISYGGGGTYYADSVKGRFTISRDNAKNTVYLQMNSLKPEDTAVYYCAKPRAFVGYNHWGQGTQVTVSS,low polyreactivity
18,QVQLVESGGGLVQAGGSLRLSCAASGRIFGVYAMGWYRPAPGKERELVAGINGGDSTYYADSVKGRFTISRDNAKNTVYLQMNSLKPEDTAVYYCAAEADESGSNYDYWGQGTQVTVSS,low polyreactivity
19,QVQLVESGGGLVQAGGSLSLSCAASGSSFSLYTMGWYRQAPGKERDLVASISQSGGSTYYADSVKGRFTISRDNAKNTVYLQMNSLKPEDTAVYFWNAKGRSGTLTLYYYWGQGTQVTVSS,low polyreactivity
20,QVQLVESAGGLVQAGGSLRLSCAASGSIFYEYAMGWYRQAPGKERELVATITWTDDSTYYADSVKGRFTISRDNAKNTVYLQMNSLKPEDTAVYYCNADLWPGNHDGYWGQGTQVTVSS,low polyreactivity
21,QVQLVESGGGLVQAGGSLRLSCAASGSTFGFNPMGWYRQAPGKERELVAAITGSGGSTYYADSVKGRFTISRDNAKNTVYLQMNSLKPEDTAVYYCARETYGDYVHYDYWGQGTQVTVSS,low polyreactivity
